Measured values reported in patent US20260176354A1, “ANTIBODY BINDING TO CD22, AND BISPECIFIC ANTIBODY, CHIMERIC ANTIGEN RECEPTOR AND ANTIBODY-DRUG CONJUGATE COMPRISING SAME, AND USE THEREOF” (THE ASAN FOUNDATION, priority 2022, published 2026).
Residue numbers refer to the chain shown, from its start.

Key:
[1] = molecular target: T1, human CD22-His protein (Sino Biological Inc.) (human, UniProt P20273 20-687); test: ELISA, human CD22-His coated, anti-human IgG Fc-HRP detection
T1 construct: Bought protein coated on the ELISA plate (100 ng/well); not shown: His tag
T1 sequence (looked up): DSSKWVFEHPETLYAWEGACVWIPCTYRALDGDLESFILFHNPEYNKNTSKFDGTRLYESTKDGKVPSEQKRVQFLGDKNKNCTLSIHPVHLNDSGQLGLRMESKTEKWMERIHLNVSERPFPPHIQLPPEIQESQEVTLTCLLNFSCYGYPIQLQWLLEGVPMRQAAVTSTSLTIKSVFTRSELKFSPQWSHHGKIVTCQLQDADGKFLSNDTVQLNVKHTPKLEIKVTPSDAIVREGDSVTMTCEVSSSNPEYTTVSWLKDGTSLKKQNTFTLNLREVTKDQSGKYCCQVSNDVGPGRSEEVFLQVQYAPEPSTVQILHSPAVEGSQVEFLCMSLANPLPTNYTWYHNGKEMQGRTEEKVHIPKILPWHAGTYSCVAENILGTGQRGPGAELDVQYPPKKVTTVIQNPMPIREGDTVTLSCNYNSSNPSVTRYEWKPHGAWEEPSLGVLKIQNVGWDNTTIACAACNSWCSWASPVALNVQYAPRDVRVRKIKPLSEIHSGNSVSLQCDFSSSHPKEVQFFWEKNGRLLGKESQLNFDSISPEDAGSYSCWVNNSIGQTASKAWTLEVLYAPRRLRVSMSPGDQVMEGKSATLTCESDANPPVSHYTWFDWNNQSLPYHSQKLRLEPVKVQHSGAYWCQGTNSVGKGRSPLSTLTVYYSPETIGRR
Method: Microtiter plates (Corning Inc., MA, USA) were coated overnight at 4° C. with human CD22-His protein (100 ng/well, Sino Biological Inc., Beijing, China). The wells were blocked for 1 hour at 37° C. with 150 μl of 3% BSA (w/v) in PBS, after which serial dilutions of the IgG protein prepared in 3% BSA in PBS were added to each well. After incubation for 1.5 hours at 37° C., the plates were washed three times with PBST (PBS containing 0.05% Tween-20), followed by incubation for 1 hour at 37° C. with an HRP-conjugated anti-human IgG (Fc-specific) antibody (Thermo Fisher Scientific, USA). The plates were washed three times with PBST, and the amount of bound antibody was determined by adding 2,2′-azino-bis(3-ethylbenzothiazoline-6-sulfonic acid) (Thermo Fisher Scientific Inc., MA, USA). The resulting OD₄₀₅ was measured using a microplate spectrophotometer.

[2] = molecular target: T1, human CD22-His protein (Sino Biological …); test: ELISA, human CD22-His coated, anti-human Cκ-HRP detection
Method: (§1) Microtiter plates (Corning Inc., MA, USA) were coated overnight at 4° C. with human CD22-His protein (100 ng/well, Sino Biological Inc., Beijing, China). The wells were blocked for 1 hour at 37° C. with 150 μl of 3% BSA (w/v) in PBS, and serial dilutions of the anti-CD22 scFv-Cκ-HA fusion protein, prepared in 3% BSA in PBS, were added to each well. After incubation for 1.5 hours at 37° C., the plates were washed three times with PBST (PBS containing 0.05% Tween-20), followed by incubation for 1 hour at 37° C. with an HRP-conjugated anti-human CK antibody (Millipore, CA, USA). The plates were washed three times with PBST, and the amount of bound antibody was determined by adding 2,2′-azino-bis(3-ethylbenzothiazoline-6-sulfonic acid) (Thermo Fisher Scientific Inc., MA, USA). The resulting OD₄₀₅ was measured using a microplate spectrophotometer.

OCI-Ly7 cells = test: Flow cytometry analysis using anti-CD22 scFv-Cκ-HA fusion protein; assay type: binding, human; conditions: scFv-Cκ-HA fusion protein 0.25 μM; FIG. 2
Method: OCI-Ly7 cells were aliquoted into 1.5 ml tubes at a density of 3×10^5 cells per tube. The anti-CD22 scFv-Cκ-HA fusion protein (0.25 μM) was added to each tube, followed by incubation on ice for 30 minutes. After washing twice with MACS buffer (Miltenyi Biotec), the cells were incubated with Alexa Fluor 647-labeled mouse anti-HA antibody (Clone #912426, R&D Systems, MN, USA) on ice for 30 minutes. Then, the cells were washed twice with MACS buffer, resuspended in 150 μL of 1% paraformaldehyde in MACS buffer, and stored overnight at 4° C. The cells were analyzed by flow cytometry using a FACS Canto II instrument (BD Bioscience, San Jose, CA, USA). For each sample, 10,000 cells were analyzed.

human CD22-His protein = molecular target: T2, human CD22-His protein (Homo sapiens, UniProt P20273); test: ELISA analysis using anti-CD22 scFv-Cκ-HA fusion protein; assay type: binding; conditions: serial dilutions, coated human CD22-His 100 ng/well, FIG. 1
T2 construct: His; purchased Sino Biological Inc., Beijing, China
T2 sequence (P20273 20-847): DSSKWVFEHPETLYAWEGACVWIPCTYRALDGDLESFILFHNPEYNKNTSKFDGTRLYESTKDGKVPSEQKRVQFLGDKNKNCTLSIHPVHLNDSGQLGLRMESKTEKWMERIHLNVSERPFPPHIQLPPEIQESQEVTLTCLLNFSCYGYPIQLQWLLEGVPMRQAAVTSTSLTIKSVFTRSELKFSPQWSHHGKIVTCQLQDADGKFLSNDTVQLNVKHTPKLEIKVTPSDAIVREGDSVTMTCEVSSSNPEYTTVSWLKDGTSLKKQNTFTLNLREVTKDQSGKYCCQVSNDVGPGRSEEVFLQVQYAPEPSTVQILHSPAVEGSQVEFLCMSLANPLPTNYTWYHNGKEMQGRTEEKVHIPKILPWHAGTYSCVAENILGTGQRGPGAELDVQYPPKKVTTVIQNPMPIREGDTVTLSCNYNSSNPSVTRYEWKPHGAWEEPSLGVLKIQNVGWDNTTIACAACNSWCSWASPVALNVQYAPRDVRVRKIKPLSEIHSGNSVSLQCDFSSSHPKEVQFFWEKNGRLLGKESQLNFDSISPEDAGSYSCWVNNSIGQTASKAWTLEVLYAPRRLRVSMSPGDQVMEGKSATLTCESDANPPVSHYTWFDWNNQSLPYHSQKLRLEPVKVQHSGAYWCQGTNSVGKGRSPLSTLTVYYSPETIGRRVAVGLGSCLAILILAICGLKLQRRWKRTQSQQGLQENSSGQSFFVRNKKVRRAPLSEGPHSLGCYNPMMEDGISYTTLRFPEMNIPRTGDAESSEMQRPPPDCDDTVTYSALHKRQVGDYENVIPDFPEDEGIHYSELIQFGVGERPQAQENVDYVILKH
Method: as §1, with “OD405” for “OD₄₀₅”

B1: anti-CD22 IgG protein 2-3-14 (antibody, V domains shown)
VH: AVTLDESGGGLQTPGGGLSLVCKASGFSFSDYGMGWVRQAPGKGLEFVASISNTGSYTDYGAAVKGRATISRDNGQSTLRLQLNNLRAEDTGTYFCAKSAYGGSYGSSSIDAWGHGTEVIVSS
VL: LTQPSSVSANPGETVKITCSGSNNTYGWYQQKAPGSAPVTVIYDNTNRPSDIPSRFSGSKSGSTNTLTITGVQAEDEAVYFCGSRDSTYVGIFGAGTTLTVLR
notes: also called Feb; 3, 2014
Does B1 bind [1]?
Result: binds

B2: anti-CD22 IgG protein 2-3-14_H2-40 (antibody, V domains shown)
VH: B1 VH with S50F, I51L, S52G, N53S, T54S, G55S
VL: B1 VL
Does B2 bind [1]?
Result: binds

B3: anti-CD22 IgG protein 2-3-14_H1-24 (antibody, V domains shown)
VH: B1 VH with S28A, S30G, D31R, Y32S, G33S
VL: B1 VL
Does B3 bind [1]?
Result: binds

B4: recombinant anti-CD22 scFv-Cκ-HA fusion protein 2-3-14 (scFv)
scFv: LTQPSSVSANPGETVKITCSGSNNTYGWYQQKAPGSAPVTVIYDNTNRPSDIPSRFSGSKSGSTNTLTITGVQAEDEAVYFCGSRDSTYVGIFGAGTTLTVLGGGGSGGGGSGGGGSAVTLDESGGGLQTPGGGLSLVCKASGFSFSDYGMGWVRQAPGKGLEFVASISNTGSYTDYGAAVKGRATISRDNGQSTLRLQLNNLRAEDTGTYFCAKSAYGGSYGSSSIDAWGHGTEVIVSSGGGGSGGGGSGGGGSRTVAAPSVFIFPPSDEQLKSGTASVVCLLNNFYPREAKVQWKVDNALQSGNSQESVTEQDSKDSTYSLSSTLTLSKADYEKHKVYACEVTHQGLSSPVTKSFNRGESGGAYPYDVPDYAS
notes: The text prints the clone name 2-3-14 as 'Feb; 3, 2014' in several paragraphs (date conversion artefact); also called Feb; 3, 2014; 2-3-14 scFv-Cκ-HA
Does B4 bind [2]?
Result: binds

B5: recombinant anti-CD22 scFv-Cκ-HA fusion protein CI4-47 (scFv)
scFv: LTQPSSVSANPGETVKITCSGGSGGYGWYQQKSPGSAPVSLIYDNDQRPSDIPSRFSGSKSGSTGTLTITGVQADDEAVYYCGSYDSSYVGIFGAGTTLTVLGGGGSGGGGSGGGGSAVTLDESGGGLQTPGGALSLVCKASGFTFSNYCMQWVRQAPGKGLEWVAGIGSSGTGTYYGSAVRGRATISRDNGQSTVRLQLNNLRAEDTGTYYCARDYGSDSGCGWGIYAGEIDAWGHGTEVIVSSGGGGSGGGGSGGGGSRTVAAPSVFIFPPSDEQLKSGTASVVCLLNNFYPREAKVQWKVDNALQSGNSQESVTEQDSKDSTYSLSSTLTLSKADYEKHKVYACEVTHQGLSSPVTKSFNRGESGGAYPYDVPDYAS
notes: Chicken-derived scFv fused to a human constant kappa region and an HA tag; expressed in HEK293F cells, purified on KappaSelect; also called CI4-47 scFv-Cκ-HA
Does B5 bind [2]?
Result: binds

B6: CI4-47: recombinant anti-CD22 scFv-Cκ-HA fusion protein (protein)
scFv: B5 scFv
Which results are given for B6?
binding to OCI-Ly7 cells (flow cytometry) (OCI-Ly7 cells): strong binding; binding to CD22 (enzyme immunoassay, OD405) (human CD22-His protein): bind well

B7: anti-CD22 IgG protein CI4-47_8-1_H1-2-37 (antibody, V domains shown)
VH: EVQLLESGGGLVQPGGSLRLSCAASGFTFSRHGMYWVRQAPGKGLEWVSGIGSSGTGTYYGSAVRGRFTISRDNSKNTLYLQMNSLRAEDTAVYYCARDYGSDSGVGWGIYAGEIDAWGQGTLVTVSS
VL: LTQPPSVSVSPGQTARITCSGGSGGYGWYQQKPGSAPVSVIYDNDQRPSGIPERFSGSSSGTTVTLTISGVQAEDEADYYCGSYDSSYVGIFGGGTKLTVLR
Does B7 bind [1]?
Result: binds

B8: anti-CD22 IgG protein CI4-47_8-1_H1-2-1 (antibody, V domains shown)
VH: B7 VH with R31K, M34H, V106I
VL: B7 VL
Does B8 bind [1]?
Result: binds

B9: anti-CD22 IgG protein CI4-47_8-1 (antibody, V domains shown)
VH: B7 VH with R31N, H32Y, G33C, Y35S, V106C
VL: B7 VL
Does B9 bind [1]?
Result: binds
